# ± gives the uncertainty stated by the source.
# B1: Pre-mRNA-processing factor 40 homolog B, residues 274 to 332; numbered along this chain, Q6NWY9 (parent)
# chain: SNREKAKQAFKELLRDKAVPSNASWEQAMKMVVTDPRYSALPKLSEKKQAFNAYKAQRE
# Variants of: B1
# Experiment: abundance fitness (aPCA) (normalised: wild type 0, dead -1); higher = more abundant; growth selection in yeast, the domain comes from the species named
# Conditions: Homo sapiens
row,Variant,abundance fitness
1,P42S,-0.131 ± 0.078
2,P42R,-0.326 ± 0.059
3,P42A,-0.147 ± 0.07
4,P42T,-0.093 ± 0.11
5,P42V,-0.418 ± 0.071
6,P42H,-0.477 ± 0.22
7,P42Q,-0.316 ± 0.14
8,P42I,-0.283 ± 0.16
9,P42D,-0.023 ± 0.1
10,P42L,-0.287 ± 0.086
11,P42G,-0.156 ± 0.053
12,P42M,-0.189 ± 0.11
13,P42E,0.018 ± 0.079
14,P42C,-0.518 ± 0.1
15,P42K,-0.13 ± 0.18
16,P42N,-0.628 ± 0.17
17,P42F,-0.749 ± 0.21
18,P42W,-0.602 ± 0.084
19,T34H,0.043 ± 0.12
20,T34P,-0.554 ± 0.11
21,T34V,-0.419 ± 0.073
22,T34Q,-0.015 ± 0.1
23,T34E,-0.039 ± 0.09
24,T34W,-0.544 ± 0.083

row,Variant,abundance fitness
1,T34F,-0.382 ± 0.15
2,T34A,0.028 ± 0.061
3,T34M,-0.071 ± 0.089
4,T34S,0.003 ± 0.068
5,T34G,0.108 ± 0.059
6,T34I,-0.611 ± 0.11
7,T34N,0.232 ± 0.12
8,T34R,-0.257 ± 0.06
9,T34L,-0.358 ± 0.066
10,T34Y,-0.23 ± 0.11
11,S39Q,-0.191 ± 0.16
12,S39T,-0.099 ± 0.095
13,S39Y,-0.247 ± 0.12
14,S39P,-0.527 ± 0.14
15,S39G,-0.071 ± 0.068
16,S39A,-0.02 ± 0.068
17,S39C,-0.141 ± 0.094
18,S39N,0.333 ± 0.17
19,S39E,0.102 ± 0.11
20,S39D,-0.068 ± 0.11
21,S39R,0.032 ± 0.061
22,S39M,-0.053 ± 0.19
23,S39K,-0.228 ± 0.14
24,S39W,-0.278 ± 0.1

row,Variant,abundance fitness
1,S39L,-0.342 ± 0.084
2,S39H,0.098 ± 0.11
3,V33G,0.055 ± 0.054
4,V33D,0.006 ± 0.13
5,V33F,-0.228 ± 0.11
6,V33P,-0.384 ± 0.12
7,V33A,0.141 ± 0.074
8,V33H,0.164 ± 0.14
9,V33N,0.152 ± 0.16
10,V33E,0.169 ± 0.093
11,V33Y,-0.269 ± 0.2
12,V33C,0.137 ± 0.086
13,V33T,-0.042 ± 0.12
14,V33Q,0.053 ± 0.17
15,V33M,0.171 ± 0.12
16,V33K,0.169 ± 0.12
17,V33S,0.198 ± 0.073
18,V33W,0.012 ± 0.088
19,V33L,-0.135 ± 0.067
20,L44M,-0.087 ± 0.1
21,L44F,-0.574 ± 0.31
22,L44D,-0.288 ± 0.13
23,L44Q,-0.219 ± 0.086
24,L44W,-0.561 ± 0.089

row,Variant,abundance fitness
1,L44K,-0.289 ± 0.11
2,L44N,-0.448 ± 0.19
3,L44P,-0.269 ± 0.084
4,L44V,-0.107 ± 0.077
5,L44T,-0.337 ± 0.12
6,L44R,-0.36 ± 0.062
7,L44A,-0.12 ± 0.072
8,L44S,-0.175 ± 0.076
9,L44Y,-0.809 ± 0.22
10,L44I,-0.101 ± 0.13
11,L44H,-0.736 ± 0.17
12,L44E,0.137 ± 0.089
13,M31T,-0.336 ± 0.11
14,M31R,-0.266 ± 0.06
15,M31W,-0.865 ± 0.13
16,M31V,-0.326 ± 0.084
17,M31S,-0.115 ± 0.077
18,M31N,-0.364 ± 0.17
19,M31P,-0.247 ± 0.15
20,M31D,-0.272 ± 0.11
21,M31H,-0.208 ± 0.17
22,M31E,-0.109 ± 0.088
23,M31K,-0.293 ± 0.094
24,M31L,-0.189 ± 0.099

row,Variant,abundance fitness
1,M31C,-0.422 ± 0.12
2,M31G,-0.231 ± 0.059
3,M31F,-0.634 ± 0.19
4,M31Y,-0.32 ± 0.14
5,M31Q,-0.246 ± 0.15
6,V32K,-0.171 ± 0.11
7,V32F,-0.619 ± 0.13
8,V32R,-0.599 ± 0.064
9,V32Y,-0.583 ± 0.12
10,V32L,-0.182 ± 0.1
11,V32H,-0.091 ± 0.13
12,V32N,-0.294 ± 0.14
13,V32D,-0.347 ± 0.091
14,V32W,-0.732 ± 0.091
15,V32T,-0.094 ± 0.083
16,V32Q,-0.428 ± 0.14
17,V32I,0.178 ± 0.086
18,V32S,-0.343 ± 0.075
19,V32G,-0.381 ± 0.055
20,V32M,-0.175 ± 0.1
21,V32C,-0.113 ± 0.078
22,V32E,-0.166 ± 0.09
23,V32A,-0.489 ± 0.079
24,V32P,-0.439 ± 0.11

row,Variant,abundance fitness
1,K43H,-0.335 ± 0.15
2,K43N,-0.105 ± 0.14
3,K43C,0.037 ± 0.12
4,K43T,0.206 ± 0.076
5,K43L,-0.196 ± 0.067
6,K43D,0.11 ± 0.17
7,K43G,0.001 ± 0.049
8,K43W,-0.362 ± 0.068
9,K43M,-0.115 ± 0.081
10,K43R,-0.064 ± 0.049
11,K43A,-0.014 ± 0.057
12,K43P,-0.359 ± 0.078
13,K43Y,-0.691 ± 0.25
14,K43E,0.035 ± 0.075
15,K43I,-0.655 ± 0.2
16,K43V,-0.482 ± 0.063
17,K43F,-0.593 ± 0.17
18,K43S,0.122 ± 0.076
19,K43Q,-0.091 ± 0.081
20,K47P,-0.365 ± 0.093
21,K47N,-0.718 ± 0.24
22,K47S,-0.46 ± 0.085
23,K47T,-0.447 ± 0.11
24,K47W,-0.765 ± 0.1

row,Variant,abundance fitness
1,K47I,-0.972 ± 0.16
2,K47V,-0.644 ± 0.07
3,K47H,-0.427 ± 0.16
4,K47D,-0.41 ± 0.11
5,K47Y,-0.567 ± 0.14
6,K47Q,-0.236 ± 0.12
7,K47A,-0.458 ± 0.079
8,K47L,-0.605 ± 0.075
9,K47F,-0.304 ± 0.12
10,K47R,-0.142 ± 0.062
11,K47E,-0.477 ± 0.11
12,K47M,-0.497 ± 0.11
13,K47C,-0.606 ± 0.093
14,P36Y,-0.806 ± 0.13
15,P36G,-0.391 ± 0.059
16,P36R,-0.24 ± 0.064
17,P36V,-0.353 ± 0.074
18,P36S,-0.366 ± 0.075
19,P36L,-0.63 ± 0.07
20,P36C,-0.381 ± 0.11
21,P36W,-0.669 ± 0.092
22,P36A,-0.19 ± 0.076
23,P36F,-0.307 ± 0.13

# — the Human Domainome abundance scans (Beltran et al. 2025)
